# Source: patent publication US20220396632A1 (VERSEAU THERAPEUTICS, published 2022)
# Where a chain is given by its changes, count along the chain named.
# T1: PSGL-1 endogenously expressed on HL-60 cells (UniProt Q14242 42-412)
# T1 construct: whole, on cells
# T1 sequence (looked up): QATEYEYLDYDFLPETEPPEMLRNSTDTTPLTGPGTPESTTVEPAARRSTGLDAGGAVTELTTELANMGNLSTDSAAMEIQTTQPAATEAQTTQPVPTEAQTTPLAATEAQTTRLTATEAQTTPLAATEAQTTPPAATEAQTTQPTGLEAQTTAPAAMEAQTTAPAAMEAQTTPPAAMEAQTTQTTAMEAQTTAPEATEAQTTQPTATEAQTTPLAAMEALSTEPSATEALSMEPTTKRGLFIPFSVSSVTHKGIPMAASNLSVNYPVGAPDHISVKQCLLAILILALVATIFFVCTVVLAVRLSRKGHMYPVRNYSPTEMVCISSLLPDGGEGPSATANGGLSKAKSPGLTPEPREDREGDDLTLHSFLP
# T2: Recombinant human PSGL-1(ECD)-hFc1 (R&D Systems, Cat. 3345-PS) (human, UniProt Q14242 42-305)
# T2 construct: Bought; Gln42-Val295 counted on AAC50061; also called PSGL-1-Fc; PSGL-1-hFc1 chimera; not shown: human IgG1 Fc, Pro100-Lys330
# T2 sequence: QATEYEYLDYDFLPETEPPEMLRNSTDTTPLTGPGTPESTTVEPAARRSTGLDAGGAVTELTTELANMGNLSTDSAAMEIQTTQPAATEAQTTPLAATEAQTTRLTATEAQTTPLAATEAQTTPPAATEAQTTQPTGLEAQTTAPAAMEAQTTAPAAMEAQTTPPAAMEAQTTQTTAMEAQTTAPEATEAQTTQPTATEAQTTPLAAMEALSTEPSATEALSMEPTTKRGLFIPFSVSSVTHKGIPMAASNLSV
# T3: Cynomolgus PSGL-1(ECD)-HIS (cynomolgus macaque)
# T3 construct: also called Cyno PSGL1-His
# T3 chain: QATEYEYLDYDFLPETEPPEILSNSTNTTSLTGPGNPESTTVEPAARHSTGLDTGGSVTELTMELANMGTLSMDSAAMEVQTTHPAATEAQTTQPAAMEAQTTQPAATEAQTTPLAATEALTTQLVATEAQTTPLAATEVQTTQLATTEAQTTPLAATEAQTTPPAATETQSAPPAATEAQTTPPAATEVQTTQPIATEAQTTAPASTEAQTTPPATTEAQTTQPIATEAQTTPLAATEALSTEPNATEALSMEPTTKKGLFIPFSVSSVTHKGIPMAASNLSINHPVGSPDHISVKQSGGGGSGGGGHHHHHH
# T4: Biotin PSGL-1(42-62) peptide, unmodified (human, C-terminal Lys-biotin)
# T4 construct: Residues 42-62 followed by GGGK-biotin; also called WT; wild-type
# T4 peptide: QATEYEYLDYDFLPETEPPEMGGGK
# T5: Biotin sY51 PSGL-1(42-62) peptide (human, sulfotyrosine at Y51; C-terminal Lys-biotin)
# T5 construct: also called Y51(SO3) PSGL-1(42-62)
# T5 peptide: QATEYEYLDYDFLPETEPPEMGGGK
# T6: Scrambled Y46,48,51(SO3) PSGL-1(42-62) biotin peptide (sulfotyrosine at peptide positions 5, 7 and 10; C-terminal Lys-biotin)
# T6 construct: also called scrambled sulfated peptide: biotin
# T6 peptide: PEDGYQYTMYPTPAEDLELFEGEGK
# B1: 19L04.002 (antibody, IgG4, V domains shown)
# VH: QIQLVQSGSELKKPGASVKVSCKASGYTFTTYGMSWVRQAPGQGLKWMGWINTYSGVPTYADDFKGRFVFSLDTSVSTAYLQISSLKAEDTAVYFCARHYYGSHYFDYWGQGTLVTVSS
# VL: DIVMTQSPDSLAVSLGERATIRCKSSQSLLSSSNQKNYLAWYQQKPGQPPKLLVYFASTRESGVPDRFSGSGSGTDFTLTISSLQAEDVAVYYCQQHYFSPLTFGQGTKLEIK
# notes: Humanised
# B2: 19L04.008 (antibody, IgG4, V domains shown)
# VH: QIQLVQSGAEVKKPGASVKVSCKASGYTFTTYGMSWVRQAPGQGLKWMGWINTYSGVPTYADDFKGRFTFTLDTSISTAYMELSRLRSDDTAVYFCARHYYGSHYFDYWGQGTLVTVSS
# VL: B1 VL with I21L, D66V, Y93F
# notes: Humanised
# B3: 19L04.006 (antibody, IgG4, V domains shown)
# VH: B1 VH
# VL: B1 VL with I21L, D66V, Y93F
# notes: Humanised
# B4: 19L04.004 (antibody, IgG4, V domains shown)
# VH: B2 VH
# VL: B1 VL
# notes: Humanised
# B5: 20I15.001 (antibody, IgG4, V domains shown)
# VH: EVQLVESGGGLVQPGGSLRLSCAASGFTFTDYYMSWVRQAPGKGLEWLGFIRNKANGYTTEYSASVKGRFTISRDNSKNSLYLQMNSLKTEDTAVYYCARTYLRRGYFDVWGQGTLVTVSS
# VL: DIQLTQSPSTLSASVGDRVTITCRASKSVSTSGYSYMHWFQQKPGKAPKLLIYLASNLESGVPSRFSGSGSGTEFTLTISSLQPDDFATYYCQHSRELPLTFGQGTKLEIK
# notes: Humanised; also called 20115.001
# B6: 20I15.006 (antibody, IgG4, V domains shown)
# VH: B5 VH with N56S
# VL: B5 VL with Q3V, E74D
# notes: Humanised
# B7: 20I15.003 (antibody, IgG4, V domains shown)
# VH: B5 VH with Q3K, K78Q
# VL: B5 VL
# notes: Humanised
# B8: 20I15.005 (antibody, IgG4, V domains shown)
# VH: B5 VH
# VL: B5 VL with Q3V, E74D
# notes: Humanised
# B9: 20I15.007 (antibody, IgG4, V domains shown)
# VH: B5 VH with Q3K, K78Q
# VL: B5 VL with Q3V, E74D
# notes: Humanised
# B10: 20I15.002 (antibody, IgG4, V domains shown)
# VH: B5 VH with N56S
# VL: B5 VL
# notes: Humanised
# B11: 20I15.008 (antibody, IgG4, V domains shown)
# VH: B5 VH with Q3K, N56Q, K78Q
# VL: B5 VL with Q3V, E74D
# notes: Humanised
# B12: 20I15.004 (antibody, IgG4, V domains shown)
# VH: B5 VH with Q3K, N56Q, K78Q
# VL: B5 VL
# notes: Humanised
# B13: 18L13 (antibody, V domains shown)
# VH: EVQLQQSGAELVRPGASVKLSCTASGFNIKDDFMHWVKQRPEQGLEWIGRIDPASGKTEYVPKFQDKATLTADTSSNTAYLQLSSLTSEDTAVYYCARRIAYWGQGTLVTVSA
# VL: DVVMTQTPLTLSVTIGQPASISCKSSQSLLHSNGKTYLNWLLQRPGQSPKLLIYLVSKLESGLPDRFSGSGSGTDFSLKISRVEAEDLGVYYCLQTTHFPQTFGGGTKLEIK
# notes: Mouse hybridoma mAb; only variable domains given
# Target: T1, PSGL-1 endogenously expressed on HL-60 …
# Test: flow cytometry on HL-60 cells; against parent 19L04
# Procedure: (§1) A typical flow cytometry assay was performed by resuspending HL-60 cells in FACS buffer (5% FBS and 0.05% Sodium Azide in PBS, pH 7.2) on ice, pelleting cells by centrifugation at 500×g for 3 min, washing cells with FACS buffer, and then blocking Fc receptors on the cells with Fc block (human TruStain FcX™, BioLegend Cat. #422302) on ice for 10 min. After washing, 50,000 cells/50 ul in FACS buffer was added to each well of a 96-well round bottomed plate (Costar, Cat. #3797), and 50 ul of serially diluted (0.06 nM-1.0 uM) test or isotype control antibody was added into duplicate wells. The plate was covered and incubated on ice for 1 h. After washing, Phycoerythrin (PE) conjugated anti-human IgG secondary antibody (Abcam; Cat. #ab99825) was added to each well and the plate incubated in the dark on ice for 30 min. After washing, the cells were fixed (1% paraformaldhyde).
row,Binder,HL-60 EC50 (normalized)
1,B1,1.3 fold
2,B2,1.5 fold
3,B3,1.8 fold
4,B4,4.5 fold

# Target: T1, PSGL-1 endogenously expressed on HL-60 …
# Test: flow cytometry on HL-60 cells; against parent 20I15
# Procedure: as §1
row,Binder,HL-60 EC50 (normalized)
1,B5,0.4 fold
2,B6,0.6 fold
3,B7,1.1 fold
4,B8,0.9 fold
5,B9,0.6 fold
6,B10,0.7 fold
7,B11,1.1 fold
8,B12,0.7 fold

# Target: T2, Recombinant human PSGL-1(ECD)-hFc1 (R&D …)
# Test: blocking ELISA vs L-selectin-Fc
# Procedure: (§2) A typical selectin blocking ELISA assay involved coating high binding half-well plates (Corning, Cat. #3690) with 2.5 ug/mL/25 ul per well of recombinant PSGL-1-Fc protein (R&D Systems, Cat #3345-PS) in PBS, pH 7.4, overnight at 4° C. […] Antibody (test and controls) was serially diluted (25 ul/well) in duplicate in assay buffer (3% BSA in wash buffer) into appropriate wells and the plate incubated for 45 min at 37° C. […] The plate was washed ×3 and HRP-conjugated streptavidin was added in assay buffer [25 ul per well; (Jackson Immunoresearch, Cat. #016-030-084)] and the plate incubated for 45 min at 37° C. […] For each antibody, an IC50 value was determined from sigmoidal fitted titration curves.
row,Binder,% max Block
1,B13,0%

# Target: T3, Cynomolgus PSGL-1(ECD)-HIS
# Test: ELISA, plate cyno PSGL-1(ECD)-HIS
# Procedure: Antibody binding to plate-immobilized cyno PSGL-1(ECD) was determined either at one concentration (20 nM) or by generating full antibody binding curves (0.003-200 nM). A typical ELISA was performed by overnight coating at 4° C. with 3 ug/mL/25 ul per well of recombinant cyno PSGL-1(ECD) protein in PBS, pH 7.4, in high binding half-well plates (Corning Cat. #3690). […] Anti-PSGL-1 IgG in assay buffer (blocking buffer containing 0.05% tween 20) was added into test and control wells (20 nM/25 ul/well) and the plate incubated for 45 min at 37° C. […] The plate was incubated for 45 min at 37° C., and mAb bound to plate-immobilized target determined at A450 nm using HRP substrate (3,3′,5,5′-tetramethylbenzidine (TMB)). For each antibody, duplicate values were averaged and assay background subtracted.
row,Binder,EC50
1,B13,0.76 nM

# Target: T2, Recombinant human PSGL-1(ECD)-hFc1 (R&D …)
# Test: blocking ELISA vs P-selectin-Fc
# Procedure: as §2
row,Binder,% max Block
1,B13,0%

# Target: T4, Biotin PSGL-1(42-62) peptide, unmodified
# Test: ELISA, immobilized biotin peptide
# Outline: (§3)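 In this ELISA, half-well high binding plates (Corning Cat. #3690) received 3 ug/mL/25 ul per well of biotin-tagged PSGL-1 peptides covering residues 42 to 62, diluted in PBS, pH 7.4, and coated overnight at 4° C. Duplicate readings for each antibody were averaged and the average assay background was subtracted. PSGL-1 protein or peptide was the positive control.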
row,Binder,EC50
1,B13,0.764 nM

# Target: T5, Biotin sY51 PSGL-1(42-62) peptide
# Test: ELISA, immobilized biotin peptide
# Outline: as §3
row,Binder,EC50
1,B13,0.914 nM

# Target: T6, Scrambled Y46,48,51(SO3) PSGL-1(42-62) …
# Test: ELISA, immobilized biotin peptide
# Outline: as §3
row,Binder,EC50
1,B13,2.63 nM

# Target: T2, Recombinant human PSGL-1(ECD)-hFc1 (R&D …)
# Test: blocking ELISA vs VISTA-Fc, pH 6.0
row,Binder,% max Block
1,B13,0%

# Target: T1, PSGL-1 endogenously expressed on HL-60 …
# Test: flow cytometry on HL-60 cells
# Procedure: as §1
row,Binder,EC50
1,B1,2.5 nM
2,B2,2.9 nM
3,B3,3.5 nM
4,B4,8.9 nM
5,B5,0.5 nM
6,B6,0.8 nM
7,B7,1.6 nM
8,B8,1.3 nM
9,B9,0.8 nM
10,B10,1 nM
11,B11,1.6 nM
12,B12,1 nM
